Assay results as given in patent publication US12269859B2, “Synthetic immune receptors and methods of use thereof” (Angeles Therapeutics, Inc., priority 2016, dated 2025).

B1: 022817-K08 (protein)
chain: MALPVTALLLPLALLLHAARPQIVLTQSPATLSASPGEKATMTCSASSGVNYMHWYQQKPGTSPKRWIYDTDKTASGVPARFSGSGSGTSYSLTISSMEAEDAATYYCHQRGSYTFGGGTKLEIKLEEQKLISEEDLGSGEDLKNVFPPEVAVFEPSKAEIAHTQKATLVCLATGFYPDHVELSWWVNGKEVHSGVCTDPQPLKEQPALNDSRYCLSSRLRVSATFWQNPRNHFRCQVQFYGLSENDEWTQDRAKPVTQIVSAEAWGRADCGITSASYHQGVLSATILYEILLGKATLYAVLVSALVLMAMVKRKDSRGRAKRSGSGATNFSLLKQAGDVEENPGPTSMDWIWRILFLVGAATGAHSFEQVQLEQPGAEVVKPGASVKVSCKTSGYTFTSNWMHWVKQTPGKGLEWIGEIDPSDSYTNYNQKFDGKAKLTVDKSSSTAYMEVSDLTAEDSATYYCARGSNPYYYAMDYWGQGTSVTVSSTREQKLISEEDLGSGIQNPDPAVYQLRDSKSSDKSVCLFTDFDSQTNVSQSKDSDVYITDKCVLDMRSMDFKSNSAVAWSNKSDFACANAFNNSIIPEDTFFPSSDVPCDVKLVEKSFETDTNLNFQNLSVIGFRILLLKVAGFNLLMTLRLWSSRAKRSGSGVKQTLNFDLLKLAGDVESNPGPSRGHMTEYKPTVRLATRDDVPRAVRTLAAAFADYPATRHTVDPDRHIERVTELQELFLTRVGLDIGKVWVADDGAAVAVWTTPESVEAGAVFAEIGPRMAELSGSRLAAQQQMEGLLAPHRPKEPAWFLATVGVSPDHQGKGLGSAVVLPGVEAAERAGVPAFLETSAPRNLPFYERLGFTVTADVEVPEGPRTWCMTRKPGA
B2: 070517-H02 (protein)
chain: MALPVTALLLPLALLLHAARPLEGKPIPNPLLGLDSTGSGEDLKNVFPPEVAVFEPSKAEIAHTQKATLVCLATGFYPDHVELSWWVNGKEVHSGVCTDPQPLKEQPALNDSRYCLSSRLRVSATFWQNPRNHFRCQVQFYGLSENDEWTQDRAKPVTQIVSAEAWGRADCGITSASYHQGVLSATILYEILLGKATLYAVLVSALVLMAMVKRKDSRGRAKRSGSGATNFSLLKQAGDVEENPGPTSMALPVTALLLPLALLLHAARPDIQMTQSPSSLSASVGDRVTITCKASDHINNWLAWYQQKPGQAPKLLIYGATTLETGVPSRFSGSGSGTDYTLTISSLQPEDFATYYCQQSWNTPWTFGQGTKLEIKRGGGGSGGGGSGGGGSQVQLQQPGAELVKPGASVKMSCKASGYAFSSYWINWMKQKPGQGLEWIGQIYPGDGDTNYNGKFKGRATLTADTSSSTAYMQLSSLTSEDSAVYFCARSITTVVGCAMDYWGQGTSVTVSSTREQKLISEEDGSGIQNPDPAVYQLRDSKSSDKSVCLFTDFDSQTNVSQSKDSDVYITDKCVLDMRSMDFKSNSAVAWSNKSDFACANAFNNSIIPEDTFFPSSDVPCDVKLVEKSFETDTNLNFQNLSVIGFRILLLKVAGFNLLMTLRLWSSRAKRSGSGVKQTLNFDLLKLAGDVESNPGPSRGHMTEYKPTVRLATRDDVPRAVRTLAAAFADYPATRHTVDPDRHIERVTELQELFLTRVGLDIGKVWVADDGAAVAVWTTPESVEAGAVFAEIGPRMAELSGSRLAAQQQMEGLLAPHRPKEPAWFLATVGVSPDHQGKGLGSAVVLPGVEAAERAGVPAFLETSAPRNLPFYERLGFTVTADVEVPEGPRTWCMTRKPGA
B3: 070517-G02 (protein)
chain: MALPVTALLLPLALLLHAARPLETPFPSLAPPIMLLVDGKQQMVVVCLVLDVAPPGLDSPIWFSAGNGSALDAFTYGPSPATDGTWTNLAHLSLPSEELASWEPLVCHTGPGAEGHSRSTQPMHLSGEASTARTCPQEPLRGTPGGALWLGVLRLLLFKLLLFDLLLTCSCLCDPAGPLPSPATTTRLRALGSHRLHPATETGGREATSSPRPQPRDRRWGDTPPGRKPGSPVRAKRSGSGVKQTLNFDLLKLAGDVESNPGPTSTMALPVTALLLPLALLLHAARPDIQMTQSPSSLSASVGDRVTITCKASDHINNWLAWYQQKPGQAPKLLIYGATTLETGVPSRFSGSGSGTDYTLTISSLQPEDFATYYCQQSWNTPWTFGQGTKLEIKRGGGGSGGGGSGGGGSQVQLQQPGAELVKPGASVKMSCKASGYAFSSYWINWMKQKPGQGLEWIGQIYPGDGDTNYNGKFKGRATLTADTSSSTAYMQLSSLTSEDSAVYFCARSITTVVGCAMDYWGQGTSVTVSSTRGKPIPNPLLGLDSTGSGEDLKNVFPPEVAVFEPSEAEISHTQKATLVCLATGFYPDHVELSWWVNGKEVHSGVCTDPQPLKEQPALNDSRYCLSSRLRVSATFWQNPRNHFRCQVQFYGLSENDEWTQDRAKPVTQIVSAEAWGRADCGFTSESYQQGVLSATILYEILLGKATLYAVLVSALVLMAMVKRKDSRGRAKRSGSGATNFSLLKQAGDVEENPGPSRGHMTEYKPTVRLATRDDVPRAVRTLAAAFADYPATRHTVDPDRHIERVTELQELFLTRVGLDIGKVWVADDGAAVAVWTTPESVEAGAVFAEIGPRMAELSGSRLAAQQQMEGLLAPHRPKEPAWFLATVGVSPDHQGKGLGSAVVLPGVEAAERAGVPAFLETSAPRNLPFYERLGFTVTADVEVPEGPRTWCMTRKPGA
B4: 020817-U02 (protein)
chain: MALPVTALLLPLALLLHAARPLEGKPIPNPLLGLDSTGSGEDLKNVFPPEVAVFEPSKAEIAHTQKATLVCLATGFYPDHVELSWWVNGKEVHSGVCTDPQPLKEQPALNDSRYCLSSRLRVSATFWQNPRNHFRCQVQFYGLSENDEWTQDRAKPVTQIVSAEAWGRADCGITSASYHQGVLSATILYEILLGKATLYAVLVSALVLMAMVKRKDSRGRAKRSGSGATNFSLLKQAGDVEENPGPTSMALPVTALLLPLALLLHAARPDILLTQSPATLSLSPGERATLSCRASQSVDNYGISFMNWYQQKPGQPPKLLIYAASNQGSGIPSRFSGSGSGTDFTLTISSLEPEDFAMYFCQQSNEVPRTFGGGTKLEIKGGGGSGGGGSGGGGSQVQLVESGGGLVEPGGSLRLSCMSGYAFSSSWMNWVRQMPGKGLEWMGRIYPGDGDTNYNGKFKERVTITADESTSTAYMELSSLKAEDTAVYFCARSEYWGNYWAMDYWGQGTLVTVSSTREQKLISEEDGSGIQNPDPAVYQLRDSKSSDKSVCLFTDFDSQTNVSQSKDSDVYITDKCVLDMRSMDFKSNSAVAWSNKSDFACANAFNNSIIPEDTFFPSSDVPCDVKLVEKSFETDTNLNFQNLSVIGFRILLLKVAGFNLLMTLRLWSSRAKRSGSGVKQTLNFDLLKLAGDVESNPGPSRGHMTEYKPTVRLATRDDVPRAVRTLAAAFADYPATRHTVDPDRHIERVTELQELFLTRVGLDIGKVWVADDGAAVAVWTTPESVEAGAVFAEIGPRMAELSGSRLAAQQQMEGLLAPHRPKEPAWFLATVGVSPDHQGKGLGSAVVLPGVEAAERAGVPAFLETSAPRNLPFYERLGFTVTADVEVPEGPRTWCMTRKPGA
B5: 012617-O05 (protein)
chain: MALPVTALLLPLALLLHAARPLEGKPIPNPLLGLDSTGSGEDLKNVFPPEVAVFEPSKAEIAHTQKATLVCLATGFYPDHVELSWWVNGKEVHSGVCTDPQPLKEQPALNDSRYCLSSRLRVSATFWQNPRNHFRCQVQFYGLSENDEWTQDRAKPVTQIVSAEAWGRADCGITSASYHQGVLSATILYEILLGKATLYAVLVSALVLMAMVKRKDSRGRAKRSGSGATNFSLLKQAGDVEENPGPTSMALPVTALLLPLALLLHAARPDILLTQSPATLSLSPGERATLSCKASQNVGTNVAWYQQKPGQPPKLLIYSATYRNSGIPARFSGSGSGTEFTLTITNVQSKDLADYFYFCQYNRYPYTSGGGTKLEIKRGGGGSGGGGSGGGGSQVQLVESGGGLVEPGGSLRLSCMSGYAFSSYWMNWVRQMPGKGLEWMGQIYPGDGDTNYNGKFKGRVTITADESTSTAYMELSSLKAEDTAVYFCARKTISSVVDFYFDNWGQGTLVTVSSTREQKLISEEDGSGIQNPDPAVYQLRDSKSSDKSVCLFTDFDSQTNVSQSKDSDVYITDKCVLDMRSMDFKSNSAVAWSNKSDFACANAFNNSIIPEDTFFPSSDVPCDVKLVEKSFETDTNLNFQNLSVIGFRILLLKVAGFNLLMTLRLWSSRAKRSGSGVKQTLNFDLLKLAGDVESNPGPSRGHMTEYKPTVRLATRDDVPRAVRTLAAAFADYPATRHTVDPDRHIERVTELQELFLTRVGLDIGKVWVADDGAAVAVWTTPESVEAGAVFAEIGPRMAELSGSRLAAQQQMEGLLAPHRPKEPAWFLATVGVSPDHQGKGLGSAVVLPGVEAAERAGVPAFLETSAPRNLPFYERLGFTVTADVEVPEGPRTWCMTRKPGA
B6: 020717-P08 (protein)
chain: MALPVTALLLPLALLLHAARPDILLTQSPATLSLSPGERATLSCKASQNVGTNVAWYQQKPGQPPKLLIYSATYRNSGIPARFSGSGSGTEFTLTITNVQSKDLADYFYFCQYNRYPYTSGGGTKLEIKRLEGKPIPNPLLGLDSTGSGEDLKNVFPPEVAVFEPSKAEIAHTQKATLVCLATGFYPDHVELSWWVNGKEVHSGVCTDPQPLKEQPALNDSRYCLSSRLRVSATFWQNPRNHFRCQVQFYGLSENDEWTQDRAKPVTQIVSAEAWGRADCGITSASYHQGVLSATILYEILLGKATLYAVLVSALVLMAMVKRKDSRGRAKRSGSGATNFSLLKQAGDVEENPGPTSMDWIWRILFLVGAATGAHSFEQVQLVESGGGLVEPGGSLRLSCMSGYAFSSYWMNWVRQMPGKGLEWMGQIYPGDGDTNYNGKFKGRVTITADESTSTAYMELSSLKAEDTAVYFCARKTISSVVDFYFDNWGQGTLVTVSSAEPKSPDKTHTCPPCPKDPKTREQKLISEEDLGSGIQNPDPAVYQLRDSKSSDKSVCLFTDFDSQTNVSQSKDSDVYITDKCVLDMRSMDFKSNSAVAWSNKSDFACANAFNNSIIPEDTFFPSSDVPCDVKLVEKSFETDTNLNFQNLSVIGFRILLLKVAGFNLLMTLRLWSSRAKRSGSGVKQTLNFDLLKLAGDVESNPGPSRGHMTEYKPTVRLATRDDVPRAVRTLAAAFADYPATRHTVDPDRHIERVTELQELFLTRVGLDIGKVWVADDGAAVAVWTTPESVEAGAVFAEIGPRMAELSGSRLAAQQQMEGLLAPHRPKEPAWFLATVGVSPDHQGKGLGSAVVLPGVEAAERAGVPAFLETSAPRNLPFYERLGFTVTADVEVPEGPRTWCMTRKPGA

tested on: target antigen-expressing cell line; assay: Jurkat NFAT-GFP assay, coculture with target cell lines expressing the respective target antigen (summary Table 10A); assay type: cell-based, human; set-up: key: The signs +/−, +, 2+ etc. after the name of the cell lines indicate the relative degree of positivity on the Jurkat-NFAT-GFP assay as measured by the % GFP positive cells; +: relative degree of positivity on the Jurkat-NFAT-GFP assay as measured by the % GFP positive cells; 2+: relative degree of positivity on the Jurkat-NFAT-GFP assay as measured by the % GFP positive cells; conditions: SIR-expressing Jurkat-NFAT-GFP cells cocultured with NALM6; relative % GFP positive cells
Summary of the method: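 Jurkat cells carrying an NFAT-driven GFP reporter and lentivirally expressing a SIR were cocultured with antigen-bearing target cells (E:T ~1:2) for about 4–18 h. GFP induction read by flow cytometry as % GFP+ cells, scored positive and graded (+/−, +, 2+) against parental Jurkat-NFAT-GFP cells.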

Molecule | NFAT-GFP ASSAY Positive Cell lines: NALM6
B1 | (+/−)
B2 | (+)
B3 | (+/−)
B4 | (+/−)

same assay, conditions: SIR-expressing Jurkat-NFAT-GFP cells cocultured with RAJI; relative % GFP positive cells

Molecule | NFAT-GFP ASSAY Positive Cell lines: RAJI
B1 | RAJI (+), NALM6
B5 | RAJI (+/−)
B2 | RAJI (2+), NALM6
B6 | RAJI (+)
B3 | RAJI (+), NALM6
B4 | RAJI (+), NALM6
